{"source": "patent US20230391872A1", "about": "(ANAPTYSBIO, published 2023)", "binders": {"B1": {"name": "6G3 IgG4 anti-BTLA antibody (APE10840 / APE12839 / APE13308) (antibody, V domains shown)", "VH": "QVQLVQSGAEVKKPGSSVKVSCKASGYVFSTSWMNWVRQAPGQGLEWMGRIYPGDADTNYVGKFKGRVTITADKSTTTAYMELSSLRSEDTAVYFCAKSGTFNFGNYRWYFDVWGKGTTVTVSS", "VL": "AIQLTQSPSSLSASVGDRVTITCRVSENIYSHLAWYQQKPGKAPKLLIYAATNLALGVPSRFSGSGSGTDYTLTISSLQPEDFATYYCQLFWGPPLTFGGGTKVEIKR", "notes": "Humanized antibody from a mouse hybridoma, tested as human IgG4 (detected with anti-human kappa); Some assays used labelled lots (DyLight 650, AF647, biotin, DyL488); also called 6G3 antibody; APE10840.03"}}, "key": {"[1]": {"target": "T1, human BTLA on cells (stably transfected 293c18 cells; human peripheral blood T and B cells) (human, UniProt Q7Z6A9 31-289)", "T1 construct": "whole, on cells; the cells are named under assay; also called cell surface BTLA; full-length human BTLA", "assay": "flow cytometry, DyLight 650-labeled 6G3 IgG4 on human peripheral blood CD20+ B cells", "description": "PBMCs were washed and incubated at 2×10⁷ cells/ml in FACS buffer (PBS, 1% BSA, 0.02% sodium azide) with Human BD Fc Block (2.5 μg/1×10⁶ cells, BD Biosciences) and LIVE/DEAD® Fixable Yellow Dead Cell Stain (30 μl, ThermoFisher Scientific) for 10 minutes on ice. Cells were washed once in FACS buffer, resuspended in FACS buffer at 1×10⁷ cells/ml and the following phenotyping antibodies added: Alexa Fluor 488-anti-human CD3E clone SK7, Brilliant Violet 421-anti-human CD4 clone OKT4, Brilliant Violet 785-anti-human CD8 clone SK1, and Brilliant Violet 570-anti-human CD20 clone 2H7 (50 μl each; all from BioLegend, Inc.). […] Samples were washed twice in FACS buffer, resuspended in 150 μl/well FACS buffer, and analyzed for fluorescence on a NovoCyte Flow Cytometer (ACEA Biosciences, Inc.). Data were analyzed using NovoExpress Software (ACEA Biosciences, Inc.). Median fluorescence intensities of anti-BTLA or isotype staining on gated CD4⁺ T cells (FIG. 4), CD8⁺ T cells (FIG. 4), or CD20⁺ B cells (FIG. 4) were graphed and curves fit with log(agonist) vs. response (three parameters) least squares fit for EC₅₀ calculation in GraphPad Prism (GraphPad Software, Inc.)."}, "[2]": {"target": "T1, human BTLA on cells (stably transfected …)", "assay": "flow cytometry (MFI) on 293c18 cells stably expressing human BTLA, goat anti-human kappa-PE detection, four-parameter fit [left panel (Hu BTLA 293c18 cells), EC50 box]", "description": "293c18 cell clone 1E4 stably expressing human BTLA construct or clone 1G5 stably expressing cynomolgus monkey BTLA were harvested with Accutase solution (Millipore Sigma/Sigma-Aldrich) and washed once with Phosphate-Buffered Saline, 1% BSA. 293c18 cynomolgus monkey BTLA cells were loaded with the lipophilic carbocyanine dye, DiD (2 μM, 1,1′-dioctadecyl-3,3,3′,3′-tetramenthylindodicarbocyanine; ThermoFisher Scientific) by rocking gently for 10 minutes at room temperature. DiD-stained cells were washed in PBS, 1% BSA and equal amounts of human BTLA 293c18 cells and cynomolgus monkey BTLA 293c18-DiD-stained cells were mixed. Cells (2×10⁵ total cells/sample) were incubated with the indicated concentrations of purified 6G3 IgG4 (two production lots, APE10840.03 and APE10840.04 (H Chain SEQ ID NO: 144, L Chain SEQ ID NO: 174)) or human IgG4 isotype control antibody specific for hen egg lysozyme with gentle shaking for 10 minutes at 4° C. in FACS buffer (PBS, 1% BSA, 0.02% sodium azide). […] Cells were washed and resuspended in FACS buffer and analyzed for fluorescence on a BD FACSArray (BD Biosciences). DiD stained cells expressing cynomolgus monkey BTLA (FIG. 3) were analyzed for median fluorescence intensity (MFI) separately from cells expressing human BTLA (FIG. 3). […]"}}, "note": "Values joined by “and” are separate entries in the source; they are usually repeats but may differ in a detail not shown here. Identical values can stand only once."}
{"binder": "B1", "values": [{"measurement": "EC50", "setting": "[1]", "value": "~0.5", "unit": "nM"}, {"measurement": "EC50", "setting": "[2]", "value": "1.69 nM and 1.79 nM"}]}
